In publication doi:10.1101/2022.02.27.481963 one finds stoichiometry N data, which are given here for 1 substance.

For orientation: stoichiometry N means the number of molecules, sites or subunits per partner or assembly.

The target of the experiment is Fused MjGMPS (MjATPPase subunit fused to the C-terminus of MjGATase, no intervening linker) (Methanocaldococcus jannaschii). Briefly: SEC. A general note: In gel filtration, larger molecules generally elute earlier.

Substance “Fused MjGMPS (MjATPPase subunit fused to the C-terminus of MjGATase, no intervening linker) (enzyme)” registered a stoichiometry N of 2.
